The results in this text go back to US7045537B1, “Protein structures and protein fibres” (The University of Sussex, priority 1999, dated 2006).

Values joined by “and” are separate entries in the source; they are usually repeats but may differ in a detail not shown here. Equal entries are not always repeated. Residues, ends and D or L forms follow the SMILES beside them.

A short description of series [1]: Solubility remarks in peptide design table. In kind it is physicochemical. The following applies: individual peptide. The source says: Various peptide monomer units were designed as described above. The monomers and capping peptides (designed to complement the sticky ends of the monomers so as to produce flush, or blunt ends and, so, arrest longitudinal fibre assembly) are set out in Table 1: […]

Series [2] in a line: Electron microscopy (TEM/SEM) of peptide preparations. The format is physicochemical. As to conditions: individual peptide. On the procedure: To confirm fibre assembly, we used electron microscopy to visualize structures in the peptide preparations directly. For TEM experiments, peptide samples were incubated for 1 h at 5° C. in filtered 10 mM MOPS, pH 7. A drop of peptide solution was applied to a carbon-coated copper specimen grid (Agar Scientific Ltd, Stansted, UK), and dried with filter paper before negative staining with 0.5% aqueous uranyl acetate and then dried at 5° C. A “fresh” SAF peptide mixture was prepared by mixing preincubated solutions of the individual peptides at 200 μM directly on the specimen grid, before drying and negative staining as described. Grids were examined in a Hitachi 7100 TEM at 100 kV and digital images were acquired with a (800×1200 pixel) charge-coupled device camera (Digital Pixel Co. Ltd., Brighton, UK) and analyzed (Kinetic Imaging Ltd., Liverpool, UK).
For scanning electron microscopy (SEM) experiments, negatively-stained specimen grids were sputter-coated with gold and examined in a Leo Stereoscan 420 SEM at 20 kV and with a probe current of 10 pA.

The nature of series [3]: Circular dichroism (CD) spectroscopy of peptides and peptide mixtures. The format is physicochemical. The following applies: individual peptide, 10 mM MOPS pH 7, 5° C. On the procedure:
(§1) Peptide samples were incubated at 5° C. in 10 mM MOPS (3-(N-Morpholino)propanesulfonic acid), pH 7. Sample concentrations were determined from their UV absorbance at 280 nm (SAF-p1) and 214 nm (SAF-p2). After baseline correction, ellipticities in mdeg were converted to molar ellipticities (deg cm^2 dmol-res^−1) by normalizing for the concentration of peptide bonds. Data were recorded in a cell of 1 mm path length by integrating the signal for 5s (and 1s for the fresh 100 μM peptide mixture) every nm in the range 205–260 nm. CD measurements were made using a JASCO J-715 spectropolarimeter fitted with a Peltier temperature controller.
The CD data shown in FIG. 3 provides spectroscopic evidence for the formation of helical structures by the SAF peptides.
Consistent with our design, neither SAF-p1 nor SAF-p2 was highly structured in aqueous solution at pH 7 and 5° C. (FIG. 3). However, when mixed in equal proportions the circular dichroism (CD) spectrum changed and, moreover, was markedly different from the theoretical spectrum generated by averaging the spectra for the isolated peptides. In particular, the spectrum for the mixture had intense minima at 208 and 222 nm consistent with the formation of α-helical structure, but these features were not as pronounced in the spectra of the individual peptides. This was clear evidence that the two peptides interacted to form an α-helical structure as designed. Furthermore, and as expected for a multimerization event, the magnitude of these spectral changes depended on peptide concentration; a SAF mixture with 10 μM of each peptide, did show a weak signal indicative of some α-helical structure, however, a 100 μM mixture gave a much stronger signal (FIGS. 3A&B).
The shape and intensity of spectra from 100 μM mixtures of the SAF peptides also changed with time (FIG. 3B). […] After incubation of the mixture for 1 hour at 5° C. (“maturation”), however, the signal at 222 nm was more intense, and indicated approximately 75% α-helix, consistent with substantial coiled-coil formation.
On the technique in general: Circular dichroism is the unequal absorption of left and right circularly polarised light.

Series [4] can be described thus: Linear dichroism (LD) spectroscopy under shear flow. The format is physicochemical. As to conditions: individual peptide, 100 μM. On the procedure:
Linear dichroism (LD) spectroscopy was also used to test if elongated structures were being formed as designed. Long polymers such as DNA molecules can be oriented by shear flow. This effect can be monitored by LD spectroscopy provided that chromophores also become aligned by the flow (M. Bloemendal (1994) Chem. Soc. Rev. 23, 265; A. Rodger and B. Norden (1997) Oxford Chemistry Masters (Oxford University Press, Oxford), vol. 1).
Peptide samples were prepared for LD as for CD. LD data were collected on samples spinning in a couette flow cell by integrating the signal for 2 s every nm in the range […], using a JASCO J-715 spectropolarimeter. After baseline correction, absorbance was converted to molar extinction coefficient (1 mol-res^−1 cm^−1) by normalizing for the concentration of peptide bonds. A linear correction for a sloping baseline was made to the data from the 100 μM SAF peptide mixture.

For series [5], the target named is T1, SAF-p2C.
T1 construct: Designed peptide, uncapped ends
T1 peptide: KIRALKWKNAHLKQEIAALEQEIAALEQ
Nature of the series: circular dichroism of the peptide mixture, 100 µM. On the procedure:
as §1, with “dmol-res^-1)” for “dmol-res^−1)”, “µM” for “μM”

For series [6], the target named is T2, SAF-p2B (CH3CO at the N terminus and NH2 at the C terminus).
T2 peptide: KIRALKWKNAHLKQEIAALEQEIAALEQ
Nature of the series: circular dichroism of the peptide mixture, 100 µM. How it is done:
as §1, with “dmol-res^-1)” for “dmol-res^−1)”, “µM” for “μM”

Series [7] deals with T3, SAF-p2A.
T3 sequence (peptide): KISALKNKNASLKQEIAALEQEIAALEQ
Briefly: circular dichroism of the peptide mixture, 10 µM.

In series [8] the target is T3, SAF-p2A. Nature of the series: circular dichroism of the peptide mixture, 100 µM.
Series [9] addresses T2, SAF-p2B. Nature of the series: thermal melt by circular dichroism of the peptide mixture, 100 µM (expect 38° C. if no interaction).
For series [10], the target named is T1, SAF-p2C. Nature of the series: circular dichroism of the peptide mixture, 10 µM. How it is done: as §1, with “dmol-res^-1)” for “dmol-res^−1)”, “µM” for “μM”
For series [11], the target named is T3, SAF-p2A. Briefly: thermal melt by circular dichroism of the peptide mixture, 100 µM.
Series [12] concerns the target T4, SAF-p2D.
T4 construct: also called Self-Assembling Fibre peptide 2
T4 peptide: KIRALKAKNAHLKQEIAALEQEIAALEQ
Briefly: circular dichroism of the peptide mixture, 100 µM. On the procedure:
as §1, with “dmol-res^-1)” for “dmol-res^−1)”, “µM” for “μM”

The target in series [13] is T4, SAF-p2D. Nature of the series: circular dichroism of the peptide mixture, 10 µM. How it is done: as §1, with “dmol-res^-1)” for “dmol-res^−1)”, “µM” for “μM”
The target in series [14] is T2, SAF-p2B. Briefly: thermal melt by circular dichroism of the peptide mixture, 100 µM (expect 36° C. if no interaction).
For series [15], the target named is T2, SAF-p2B. Nature of the series: circular dichroism of the peptide mixture, 10 µM. How it is done:
as §1, with “dmol-res^-1)” for “dmol-res^−1)”, “µM” for “μM”

Series [16] has as its target T2, SAF-p2B. Briefly: thermal melt by circular dichroism of the peptide mixture, 10 µM (expect 19° C. if no interaction).

Regarding `CC[C@H](C)[C@H](NC(=O)[C@H](CCCCN)NC(=O)[C@H](CCC(N)=O)NC(=O)[C@H](CCCCN)NC(=O)[C@H](CC(C)C)NC(=O)[C@H](C)NC(=O)[C@H](C)NC(=O)[C@@H](NC(=O)[C@@H](N)CCCCN)[C@@H](C)CC)C(=O)N[C@@H](C)C(=O)N[C@@H](C)C(=O)N[C@@H](CC(C)C)C(=O)N[C@@H](CCCCN)C(=O)N[C@@H](CCC(N)=O)C(=O)N[C@@H](CCC(=O)O)C(=O)N[C@H](C(=O)N[C@@H](CC(=O)O)C(=O)N[C@@H](C)C(=O)N[C@@H](CC(C)C)C(=O)N[C@@H](CCC(=O)O)C(=O)N[C@@H](Cc1ccc(O)cc1)C(=O)N[C@@H](CCC(=O)O)C(=O)N[C@@H](CC(N)=O)C(=O)N[C@@H](CC(=O)O)C(=O)N[C@@H](C)C(=O)N[C@@H](CC(C)C)C(=O)N[C@@H](CCC(=O)O)C(=O)N[C@@H](CCC(N)=O)C(=O)O)[C@@H](C)CC` [SAF-p1A] (H-KIAALKQKIAALKQEIDALEYENDALEQ-OH), the “DESIGN remark on solubility / precipitation” value in series [1] is given as “precipitates”. In series [2], the “EM DATA @ 100 μM (fibres)” value is “no”. In [3], the “CD DATA @ 10 μM (α-helix)” value is reported as “unfolded” and the “CD DATA @ 100 μM (α-helix)” value is reported as around 45%.

Turning to `CC[C@H](C)[C@H](NC(=O)[C@H](CCCCN)NC(=O)[C@H](CCC(N)=O)NC(=O)[C@H](CCCCN)NC(=O)[C@H](CC(C)C)NC(=O)[C@H](C)NC(=O)[C@H](C)NC(=O)[C@@H](NC(=O)[C@@H](N)CCCCN)[C@@H](C)CC)C(=O)N[C@@H](C)C(=O)N[C@@H](CO)C(=O)N[C@@H](CC(C)C)C(=O)N[C@@H](CCCCN)C(=O)N[C@@H](CCC(N)=O)C(=O)N[C@@H](CCC(=O)O)C(=O)N[C@H](C(=O)N[C@@H](CC(=O)O)C(=O)N[C@@H](C)C(=O)N[C@@H](CC(C)C)C(=O)N[C@@H](CCC(=O)O)C(=O)N[C@@H](Cc1ccc(O)cc1)C(=O)N[C@@H](CCC(=O)O)C(=O)N[C@@H](CC(N)=O)C(=O)N[C@@H](CC(=O)O)C(=O)N[C@@H](C)C(=O)N[C@@H](CC(C)C)C(=O)N[C@@H](CCC(=O)O)C(=O)N[C@@H](CCC(N)=O)C(=O)O)[C@@H](C)CC` [SAF-p1C] (H-KIAALKQKIASLKQEIDALEYENDALEQ-OH), the “EM DATA @ 100 μM (fibres)” value in series [2] is “no”. In addition, in [3], the “CD DATA @ 10 μM (α-helix)” value is given as “unfolded” and the “CD DATA @ 100 μM (α-helix)” value is around 20%. For the same molecule, in [4], the “LD DATA @ 100 μM (signal)” value is recorded as “no”.

Take `CC[C@H](C)[C@H](NC(=O)[C@H](CCC(=O)O)NC(=O)[C@H](CCC(N)=O)NC(=O)[C@H](CCC(=O)O)NC(=O)[C@H](CC(C)C)NC(=O)[C@H](C)NC(=O)[C@H](C)NC(=O)[C@@H](NC(=O)[C@H](CCC(=O)O)NC(=O)[C@H](CCC(N)=O)NC(=O)[C@H](CCCCN)NC(=O)[C@H](CC(C)C)NC(=O)[C@H](Cc1c[nH]cn1)NC(=O)[C@H](C)NC(=O)[C@H](CC(N)=O)NC(=O)[C@H](CCCCN)NC(=O)[C@H](C)NC(=O)[C@H](CCCCN)NC(=O)[C@H](CC(C)C)NC(=O)[C@H](C)NC(=O)[C@H](CCCNC(=N)N)NC(=O)[C@@H](NC(=O)[C@@H](N)CCCCN)[C@@H](C)CC)[C@@H](C)CC)C(=O)N[C@@H](C)C(=O)N[C@@H](C)C(=O)N[C@@H](CC(C)C)C(=O)N[C@@H](CCC(=O)O)C(=O)N[C@@H](CCC(N)=O)C(=O)O` [SAF-p2D] (H-KIRALKAKNAHLKQEIAALEQEIAALEQ-OH): the “EM DATA @ 100 μM (fibres)” value in series [2] is “no”. In addition, in series [3], the “CD DATA @ 10 μM (α-helix)” value is on record as around 15% and the “CD DATA @ 100 μM (α-helix)” value is reported as around 45%. In series [4], the “LD DATA @ 100 μM (signal)” value was “no”.

As for “K ISALKNK NASLKQE IAALEQE IAALEQ (KISALKNKNASLKQEIAALEQEIAALEQ) [SAF-p2A]”, the “DESIGN remark on solubility / precipitation” value in series [1] was “low solubility”. Further, in series [3], the “CD DATA @ 10 μM (α-helix)” value is on record as “unfolded”.

B1: SAF-p1A (peptide)
peptide: KIAALKQKIAALKQEIDALEYENDALEQ
notes: Prototype designed peptide, uncapped ends
B1: the “% α-helix of the mixture (CD)” value in [5] is around 80%; in [6], around 65%; in series [7], 20%; in series [8], 40%; in series [10], around 20%. The “Tm of the mixture (CD)” value in series [9] was ~36 ° C. and ~46 ° C; in series [11], 30 ° C.

B2: SAF-p1C (peptide)
peptide: KIAALKQKIASLKQEIDALEYENDALEQ
notes: also called Self-Assembling Fibre peptide 1
Turning to B2, the “% α-helix of the mixture (CD)” value in [12] was around 85%; in series [5] it was around 65%; in series [13], around 25%; in series [10], around 25%.

In the case of Ac-KIAALKQKIAALKQEIDALEYENDALEQ-NH2 (Chemically capped form of SAF-p1A) [SAF-p1B], the “% α-helix of the mixture (CD)” value in series [6] was around 80%; in [15] it was around 70%. The “Tm of the mixture (CD)” value in series [14] is around 35 ° C; in series [16] it was around 25 ° C.
